# Measurements taken from article PMC6585436 (Chemistry & biology, 2015).
# “And” between values parts separate entries of the source, which are not always exact repeats. Equal entries are not always repeated. Where two headings read alike, the source gives them in different places.
# B1: SaMscL CΔ25 C-GFP (pet15b-SaMscL CΔ(96–120)-S-TEV-GFP-6xHis) (domain or fragment)
# chain: MLKEFKEFALKGNVLDLAIAVVMGAAFNKIISSLVENIIMPLIGKIFGSVDFAKEWSFWGIKYGLFIQSVIDFIIIAFALFIFVKIANTLMKKEE
# B2: SaMscL C-GFP (pet15b-SaMscL-S-TEV-GFP-6xHis) (natural protein, Staphylococcus aureus, UniProt P68805 1-120, looked up)
# chain: MLKEFKEFALKGNVLDLAIAVVMGAAFNKIISSLVENIIMPLIGKIFGSVDFAKEWSFWGIKYGLFIQSVIDFIIIAFALFIFVKIANTLMKKEEAEEEAVVEENVVLLTEIRDLLREKK
# B3: Full-length SaMscL, cleaved of its C-terminal GFP tag (natural protein, Staphylococcus aureus, UniProt P68805 1-120, looked up)
# chain: B2 chain
# B4: N-His SaMscL (pet15b-10xHis-Thrombin-SaMscL) (natural protein, Staphylococcus aureus, UniProt P68805 1-120, looked up)
# chain: B2 chain
# What was measured:
# Experiment in all cases: native MS
# [1] = biological target: AfMscL C-GFP (pet15b-AfMscL-TEV-GFP-6xHis) (Acidithiobacillus ferrooxidans)
# [2] = biological target: N-His MtMscL (pet15b-10xHis-Thrombin-MtMscL-PG) (Mycobacterium tuberculosis) (UniProt A5U127)
# [3] = biological target: N-His MtMscL (pet15b-10xHis-Thrombin-MtMscL-PG) (Mycobacterium tuberculosis) (UniProt A5U127); remark: listed apart in the source
# native MS [4] = biological target: the molecule itself
# native MS [5] = biological target: the molecule itself; remark: listed apart in the source
# native MS [6] = biological target: the molecule itself; remark: listed apart in the source
# native MS [7] = biological target: the molecule itself; remark: listed apart in the source
# native MS [8] = biological target: the molecule itself; remark: listed apart in the source
molecule,measurement,setting,value
AfMscL C-GFP (pet15b-AfMscL-TEV-GFP-6xHis) (natural protein),stoichiometry N,[1],5
N-His MtMscL (pet15b-10xHis-Thrombin-MtMscL-PG) (from UniProt A5U127 1-151) (natural protein),relative abundance of pentamer,[2],38%
same,relative abundance of tetramer,[2],63%
same,stoichiometry N,[2],4
same,stoichiometry N,[3],5
B1,stoichiometry N,native MS [4],5
same,stoichiometry N,native MS [5],4
B2,stoichiometry N,native MS [6],5
same,stoichiometry N,native MS [7],4
B3,stoichiometry N,native MS [8],5 and 4
B4,stoichiometry N,native MS [6],4 and 3 and 2
same,stoichiometry N,native MS [5],5
